The values that follow come from article PMC6819821, “Interaction of Cholesterol With the Human SLC1A5 (ASCT2): Insights Into Structure/Function Relationships” (Frontiers in Molecular Biosciences, 2019).

Series [1] concerns the molecule itself. Kind of series: cross-linking; intact HeLa cells treated with 0.75% formaldehyde for 10 min at room temperature, stopped with 125 mM glycine; 50 ug total lysate on 8% SDS-PAGE, immunoblot with anti-hASCT2. Background: A western blot detects proteins with antibodies after separation by electrophoresis.
Series [2] concerns the molecule itself. Kind of series: cross-linking; purified WT hASCT2 in detergent, without or with 0.75 mg CHEMS, 1 or 4% formaldehyde in 20 mM Tris HCl pH 9.0 for 2 min at 23°C, stopped with 1.25 M glycine; 8% SDS-PAGE, immunoblot with anti-hASCT2.

B1: human SLC1A5 (ASCT2), endogenous in HeLa cells (natural protein, human (endogenous in HeLa), UniProt Q15758 1-541, looked up)
chain: MVADPPRDSKGLAAAEPTANGGLALASIEDQGAAAGGYCGSRDQVRRCLRANLLVLLTVVAVVAGVALGLGVSGAGGALALGPERLSAFVFPGELLLRLLRMIILPLVVCSLIGGAASLDPGALGRLGAWALLFFLVTTLLASALGVGLALALQPGAASAAINASVGAAGSAENAPSKEVLDSFLDLARNIFPSNLVSAAFRSYSTTYEERNITGTRVKVPVGQEVEGMNILGLVVFAIVFGVALRKLGPEGELLIRFFNSFNEATMVLVSWIMWYAPVGIMFLVAGKIVEMEDVGLLFARLGKYILCCLLGHAIHGLLVLPLIYFLFTRKNPYRFLWGIVTPLATAFGTSSSSATLPLMMKCVEENNGVAKHISRFILPIGATVNMDGAALFQCVAAVFIAQLSQQSLDFVKIITILVTATASSVGAAGIPAGGVLTLAIILEAVNLPVDHISLILAVDWLVDRSCTVLNVEGDALGAGLLQNYVDRTESRSTEPELIQVKSELPLDPLPVPTEEGNPLLKHYRGPAGDATVASEKESVM
notes: ASCT2 (SLC1A5), sodium-dependent neutral amino acid antiporter, endogenous in HeLa cells; Detected with anti-hASCT2 (rabbit, Millipore) after formaldehyde cross-linking of intact cells; also called hASCT2; source: endogenous, intact HeLa cells (cross-linked in the cells, then total lysate)
On to B1, for which the stoichiometry N (commonly a count of units in the complex or per binding partner) in series [1] is 3.

B2: recombinant hASCT2-6His WT (natural protein, human)
chain: B1 chain
notes: human ASCT2 (SLC1A5), wild type, construct pPICZB-ASCT2-6His; no cleavage of the tag is described; In the cross-linking the protein was detected with anti-hASCT2; also called purified WT hASCT2; SLC1A5; source: P. pastoris X-33 (pPICZB-ASCT2-6His), solubilised in C12E8, purified (Ni-NTA, PD-10)
As to B2, in series [2], the “stoichiometry N” value was found to be 3.
